Data published in patent US20220401544A1.

Tests used:
[1] = biological target: N. meningitidis serogroup B factor H binding protein (FHbp, LP2086) variant B15 (Neisseria meningitidis serogroup B) (UniProt E6MV22); assay: MEASURE flow cytometry, median over MenB isolates expressing B15
[2] = biological target: N. meningitidis serogroup B factor H binding protein (fHBP, LP2086) variant B05 (Neisseria meningitidis serogroup B) (UniProt E6MV22)
[3] = biological target: N. meningitidis serogroup B factor H binding protein (fHBP, LP2086) variant B52 (Neisseria meningitidis serogroup B) (UniProt E6MV22)
[4] = biological target: N. meningitidis serogroup B factor H binding protein (fHBP, LP2086) variant A02 (Neisseria meningitidis serogroup B)
[5] = biological target: N. meningitidis serogroup B factor H binding protein (fHBP, LP2086) variant A28 (Neisseria meningitidis serogroup B)
[6] = biological target: N. meningitidis serogroup B factor H binding protein (fHBP, LP2086) variant A76 (Neisseria meningitidis serogroup B)
[7] = biological target: N. meningitidis serogroup B factor H binding protein (fHBP, LP2086) variant A42 (Neisseria meningitidis serogroup B)
[8] = biological target: N. meningitidis serogroup B factor H binding protein (fHBP, LP2086) variant B13 (Neisseria meningitidis serogroup B) (UniProt E6MV22)
[9] = biological target: N. meningitidis serogroup B factor H binding protein (fHBP, LP2086) variant B07 (Neisseria meningitidis serogroup B) (UniProt E6MV22)
[10] = biological target: N. meningitidis serogroup B factor H binding protein (fHBP, LP2086) variant B107 (Neisseria meningitidis serogroup B)
[11] = biological target: N. meningitidis serogroup B factor H binding protein (fHBP, LP2086) variant A63 (Neisseria meningitidis serogroup B)
[12] = biological target: N. meningitidis serogroup B factor H binding protein (fHBP, LP2086) variant B08 (Neisseria meningitidis serogroup B) (UniProt E6MV22)
[13] = biological target: N. meningitidis serogroup B factor H binding protein (FHbp, LP2086) variant B03 (Neisseria meningitidis serogroup B) (UniProt E6MV22); assay: MEASURE flow cytometry, median over MenB isolates expressing B03
[14] = biological target: N. meningitidis serogroup B factor H binding protein (FHbp, LP2086) variant B09 (Neisseria meningitidis serogroup B) (UniProt E6MV22); assay: MEASURE flow cytometry, median over MenB isolates expressing B09
[15] = biological target: N. meningitidis serogroup B factor H binding protein (FHbp, LP2086) variant A22 (Neisseria meningitidis serogroup B); assay: MEASURE flow cytometry, median over MenB isolates expressing A22
[16] = biological target: N. meningitidis serogroup B factor H binding protein (FHbp, LP2086) variant A56 (Neisseria meningitidis serogroup B); assay: MEASURE flow cytometry, variant group A56 (only one strain)
[17] = biological target: N. meningitidis serogroup B factor H binding protein (FHbp, LP2086) variant A06 (Neisseria meningitidis serogroup B); assay: MEASURE flow cytometry, median over MenB isolates expressing A06
[18] = biological target: N. meningitidis serogroup B factor H binding protein (FHbp, LP2086) variant B16 (Neisseria meningitidis serogroup B) (UniProt E6MV22); assay: MEASURE flow cytometry, median over MenB isolates expressing B16
[19] = biological target: N. meningitidis serogroup B factor H binding protein (FHbp, LP2086) variant B44 (Neisseria meningitidis serogroup B); assay: MEASURE flow cytometry, median over MenB isolates expressing B44
[20] = biological target: N. meningitidis serogroup B factor H binding protein (FHbp, LP2086) variant A15 (Neisseria meningitidis serogroup B); assay: MEASURE flow cytometry, median over MenB isolates expressing A15
[21] = biological target: N. meningitidis serogroup B factor H binding protein (fHBP) variant A20 (Neisseria meningitidis serogroup B)
[22] = biological target: N. meningitidis serogroup B factor H binding protein (fHBP) variant B91 (Neisseria meningitidis serogroup B)
[23] = biological target: N. meningitidis factor H binding protein (fHBP) variant A10 (Neisseria meningitidis serogroup B)
[24] = biological target: N. meningitidis serogroup B factor H binding protein (fHBP) variant B10 (Neisseria meningitidis serogroup B)
[25] = biological target: N. meningitidis serogroup B factor H binding protein (fHBP) variant A40 (Neisseria meningitidis serogroup B)
[26] = biological target: N. meningitidis serogroup B factor H binding protein (fHBP) variant A08 (Neisseria meningitidis serogroup B)
[27] = biological target: N. meningitidis serogroup B factor H binding protein (fHBP) variant A52 (Neisseria meningitidis serogroup B)
[28] = biological target: N. meningitidis serogroup B factor H binding protein (FHbp, LP2086) variant A12 (Neisseria meningitidis serogroup B)
[29] = biological target: N. meningitidis serogroup B factor H binding protein (FHbp, LP2086) variant B16 (Neisseria meningitidis serogroup B) (UniProt E6MV22)
[30] = biological target: N. meningitidis serogroup B factor H binding protein (FHbp, LP2086) variant A22 (Neisseria meningitidis serogroup B)
[31] = biological target: N. meningitidis serogroup B factor H binding protein (FHbp, LP2086) variant A15 (Neisseria meningitidis serogroup B)
[32] = biological target: N. meningitidis serogroup B factor H binding protein (FHbp, LP2086) variant B03 (Neisseria meningitidis serogroup B) (UniProt E6MV22)
[33] = biological target: N. meningitidis serogroup B factor H binding protein (FHbp, LP2086) variant A56 (Neisseria meningitidis serogroup B)
[34] = biological target: N. meningitidis serogroup B factor H binding protein (FHbp, LP2086) variant B24 (Neisseria meningitidis serogroup B) (UniProt E6MV22)
[35] = biological target: N. meningitidis serogroup B factor H binding protein (FHbp, LP2086) variant B09 (Neisseria meningitidis serogroup B) (UniProt E6MV22)
[36] = biological target: N. meningitidis serogroup B factor H binding protein (FHbp, LP2086) variant A07 (Neisseria meningitidis serogroup B)
[37] = biological target: N. meningitidis serogroup B factor H binding protein (FHbp, LP2086) variant A06 (Neisseria meningitidis serogroup B)
[38] = biological target: N. meningitidis serogroup B factor H binding protein (FHbp, LP2086) variant B15 (Neisseria meningitidis serogroup B) (UniProt E6MV22)
[39] = biological target: N. meningitidis serogroup B factor H binding protein (FHbp, LP2086) variant A29 (Neisseria meningitidis serogroup B)
[40] = biological target: N. meningitidis serogroup B factor H binding protein (FHbp, LP2086) variant B44 (Neisseria meningitidis serogroup B)
[41] = biological target: N. meningitidis serogroup B factor H binding protein (FHbp, LP2086) variant A19 (Neisseria meningitidis serogroup B)
[42] = biological target: N. meningitidis serogroup B factor H binding protein (FHbp, LP2086) variant B24 (Neisseria meningitidis serogroup B) (UniProt E6MV22); assay: MEASURE flow cytometry, median over MenB isolates expressing B24
[43] = biological target: N. meningitidis serogroup B factor H binding protein (FHbp, LP2086) variant A19 (Neisseria meningitidis serogroup B); assay: MEASURE flow cytometry, median over MenB isolates expressing A19
[44] = biological target: N. meningitidis serogroup B factor H binding protein (FHbp, LP2086) variant A12 (Neisseria meningitidis serogroup B); assay: MEASURE flow cytometry, median over MenB isolates expressing A12
[45] = biological target: N. meningitidis serogroup B factor H binding protein (FHbp, LP2086) variant A29 (Neisseria meningitidis serogroup B); assay: MEASURE flow cytometry, median over MenB isolates expressing A29

monoclonal antibody MN86-994-11 showed an FHbp Variant Group MEASURE MFI Median [1] of 4820 MFI, a fHBP Expression (MFI) [2] of 2920 MFI and a fHBP Expression (MFI) [3] of 8730 MFI. It also gave a fHBP Expression (MFI) [4] of 13200 MFI, a fHBP Expression (MFI) [5] of 4190 MFI and a fHBP Expression (MFI) [6] of 11300 MFI. The fHBP Expression (MFI) [7] was 1610 MFI, the fHBP Expression (MFI) [8] was 1850 MFI and the fHBP Expression (MFI) [9] was 1350 MFI. The fHBP Expression (MFI) [10] was 11100 MFI, the fHBP Expression (MFI) [11] was 10800 MFI and the fHBP Expression (MFI) [12] was 1560 MFI. For the same substance, the FHbp Variant Group MEASURE MFI Median [13] was 2940 MFI, the FHbp Variant Group MEASURE MFI Median [14] was 2280 MFI and the FHbp Variant Group MEASURE MFI Median [15] was 2500 MFI. For the same substance, the FHbp Variant Group MEASURE MFI Median [16] was 5000 MFI, the FHbp Variant Group MEASURE MFI Median [17] was 3090 MFI and the FHbp Variant Group MEASURE MFI Median [18] was 2000 MFI. The FHbp Variant Group MEASURE MFI Median [19] was 14800 MFI, the FHbp Variant Group MEASURE MFI Median [20] was 2900 MFI and the fHBP Expression (MFI) [21] was under 1000 MFI. For the same substance, the fHBP Expression (MFI) [22] was under 1000 MFI, the fHBP Expression (MFI) [23] was under 1000 MFI and the fHBP Expression (MFI) [24] was under 1000 MFI. The fHBP Expression (MFI) [25] was under 1000 MFI, the fHBP Expression (MFI) [26] was under 1000 MFI and the fHBP Expression (MFI) [27] was under 1000 MFI. It also gave a Strain MEASURE MFI [28] of 2540 MFI, a Strain MEASURE MFI [29] of 2350 MFI and a Strain MEASURE MFI [30] of 3130 MFI. It also gave a Strain MEASURE MFI [31] of 3000 MFI, a Strain MEASURE MFI [32] of 3980 MFI and a Strain MEASURE MFI [33] of 5000 MFI. The Strain MEASURE MFI [34] was 6970 MFI, the Strain MEASURE MFI [35] was 2090 MFI and the FHbp Variant Group MEASURE MFI Median [36] was 1100 MFI. For the same substance, the Strain MEASURE MFI [36] was 1380 MFI, the Strain MEASURE MFI [37] was 3370 MFI and the Strain MEASURE MFI [38] was 3780 MFI. The Strain MEASURE MFI [39] was 3840 MFI, the Strain MEASURE MFI [40] was 11300 MFI and the Strain MEASURE MFI [41] was 1930 MFI. For the same substance, the FHbp Variant Group MEASURE MFI Median [42] was 8460 MFI, the FHbp Variant Group MEASURE MFI Median [43] was 1760 MFI and the FHbp Variant Group MEASURE MFI Median [44] was 2470 MFI. The FHbp Variant Group MEASURE MFI Median [45] was 5990 MFI.
